Assay [1] addresses IgG1-7D8-K409A (human) [IgG part: P01857]. Description: cell-based or functional assay.
Assay [2] deals with IgG1-7D8-K409G (human) [IgG part: P01857]. Briefly: cell-based or functional assay.
For assay [3], the target named is IgG1-7D8-K409H (human) [IgG part: P01857]. Description: cell-based or functional assay.
The target in assay [4] is IgG1-7D8-K409R (human) [IgG part: P01857]. Description: cell-based or functional assay.
The target in assay [5] is CH2-CH3 construct G1-T350I (human). Briefly: native MS, monomer-dimer equilibrium of CH2-CH3 fragment.
Assay [6] addresses CH2-CH3 construct G1 (human). Described as above.
Assay [7] has as its target CH2-CH3 construct G4-E357T (human). The assay is described as above.
The target in assay [8] is CH2-CH3 construct G4-R409M (human). The description is as above.
In assay [9] the target is CH2-CH3 construct G4-R409K (human). The assay is described as above.
Assay [10] concerns the target CH2-CH3 construct G4-R409A (human). The description is as above.
Assay [11] concerns the target CH2-CH3 construct G4-R409W (human). The assay is described as above.
For assay [12], the target named is CH2-CH3 construct G4-F405L (human). The description is as above.
In assay [13] the target is CH2-CH3 construct G4-R409T (human). The assay is described as above.
The target in assay [14] is CD20 on Daudi and Raji cells (UniProt P11836).
CD20 on Daudi and Raji cells, sequence (P11836 whole entry, the tested form may be a part): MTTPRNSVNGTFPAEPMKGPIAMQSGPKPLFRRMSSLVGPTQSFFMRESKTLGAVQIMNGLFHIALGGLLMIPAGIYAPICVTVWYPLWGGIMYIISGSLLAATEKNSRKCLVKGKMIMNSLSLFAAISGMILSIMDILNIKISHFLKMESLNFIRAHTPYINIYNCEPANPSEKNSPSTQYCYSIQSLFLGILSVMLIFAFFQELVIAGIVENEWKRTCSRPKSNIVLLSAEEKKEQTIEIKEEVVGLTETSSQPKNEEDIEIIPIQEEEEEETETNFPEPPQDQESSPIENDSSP
The target of assay [15] is CH2-CH3 construct G4 (human). Description: native MS, monomer-dimer equilibrium of CH2-CH3 fragment.
The target of assay [16] is CH2-CH3 construct G4-L351K (human). Described as above.
Assay [17] deals with CH2-CH3 construct G4-F405A (human). The assay is described as above.
For assay [18], the target named is CH2-CH3 construct G4-R409L (human). The description is as above.

IgG1-2F8-L368E (antibody): the Bispecific binding (% relative to positive control) in [1] came to 32%; in assay [2], 38%; in assay [3], 42%; in assay [4] it was 37%.

In the case of IgG1-2F8-L368V (antibody), the Bispecific binding (% relative to positive control) in assay [1] came out at 42%; in assay [2], 49%; in [3], 51%; in assay [4] it was 33%.

For IgG1-2F8-D399F (antibody), the Bispecific binding (% relative to positive control) in [1] amounted to 13%; in assay [2], 15%; in assay [3], 15%; in [4] it was 14%.

On to IgG1-2F8-Y407Q (antibody), for which the Bispecific binding (% relative to positive control) in [1] is 4%; in assay [2], 9%; in assay [3], 44%; in assay [4], 1%.

As for IgG1-2F8-L368W (antibody), the Bispecific binding (% relative to positive control) in assay [1] turned out to be 56%; in [2], 56%; in assay [3] it was 60%; in [4], 41%.

In the case of IgG1-2F8-L368S (antibody), the Bispecific binding (% relative to positive control) came to 39% in assay [1], 45% in assay [2], 53% in [3] and 37% in assay [4].

For CH2-CH3 construct G1-T350I, in assay [5], the Kd was 7 nM and the fold-difference (against wild type CH2-CH3 fragment) is 0.4 fold.

Consider IgG1-2F8-Y407L (antibody), for which the Bispecific binding (% relative to positive control) is 44% in assay [1], 41% in [2], 49% in assay [3] and 49% in [4].

As for IgG1-2F8-F405I (antibody), the Bispecific binding (% relative to positive control) stood at 32% in assay [1], 49% in assay [2], 60% in assay [3] and 39% in [4].

Take IgG1-2F8-Y407W (antibody): the Bispecific binding (% relative to positive control) was determined as 48% in assay [1], 53% in [2], 62% in [3] and 47% in assay [4].

For the substance CH2-CH3 construct G1, in [6], the Kd stood at 3 nM and the fold-difference (against wild type CH2-CH3 fragment) came to 1 fold.

For CH2-CH3 construct G4-E357T, in assay [7], the Kd is 41000 nM and the fold-difference (against wild type CH2-CH3 fragment) came to 0.0012 fold.

On to IgG1-2F8-D399H (antibody), for which the Bispecific binding (% relative to positive control) came out at 12% in [1], 14% in assay [2], 19% in assay [3] and 10% in assay [4].

As to IgG1-2F8-L368D (antibody), the Bispecific binding (% relative to positive control) in assay [1] worked out at 49%; in assay [2] it was 50%; in [3] it was 54%; in assay [4] it was 41%.

For IgG1-2F8-F405W (antibody), the Bispecific binding (% relative to positive control) in assay [1] turned out to be 17%; in assay [2], 20%; in assay [3], 18%; in [4], 16%.

Take IgG1-2F8-L368R (antibody): the Bispecific binding (% relative to positive control) turned out to be 55% in assay [1], 64% in assay [2], 91% in assay [3] and 52% in assay [4]. For the same substance, in assay [3], the Fab-arm exchange efficiency compared to the positive control, 15° C., 200 min came out at 100%.

For the substance CH2-CH3 construct G4-R409M, in assay [8], the Kd is 3 nM and the fold-difference (against wild type CH2-CH3 fragment) is 16 fold.

As for IgG1-2F8-L368G (antibody), the Bispecific binding (% relative to positive control) in assay [1] was 46%; in [2], 53%; in [3], 53%; in assay [4] it was 44%.

On to IgG1-2F8-L368H (antibody), for which the Bispecific binding (% relative to positive control) in [1] turned out to be 26%; in assay [2], 25%; in assay [3], 29%; in assay [4], 21%.

On to IgG1-2F8-D399K (antibody), for which the Bispecific binding (% relative to positive control) in [1] came to 40%; in [2], 43%; in [3], 46%; in assay [4], 34%.

Turning to CH2-CH3 construct G4-R409K, in assay [9], the dissociation constant Kd was 8 nM and the fold-difference (against wild type CH2-CH3 fragment) turned out to be 6 fold.

IgG1-2F8-L368T (antibody): the Bispecific binding (% relative to positive control) was determined as 42% in [1], 51% in [2], 56% in assay [3] and 39% in [4].

Regarding CH2-CH3 construct G4-R409A, in [10], the Kd was determined as 160 nM and the fold-difference (against wild type CH2-CH3 fragment) is 0.3 fold.

Regarding IgG1-2F8-F405T (antibody), the Bispecific binding (% relative to positive control) in [1] came out at 35%; in assay [2], 47%; in assay [3], 46%; in assay [4] it was 42%.

In the case of CH2-CH3 construct G4-R409W, in [11], the Kd is 34000 nM and the fold-difference (against wild type CH2-CH3 fragment) turned out to be 0.0014 fold.

As for IgG1-2F8-F405S (antibody), the Bispecific binding (% relative to positive control) came out at 34% in assay [1], 51% in [2], 39% in assay [3] and 45% in assay [4]. Moreover, in assay [1], the Fab-arm exchange compared to the positive control, 20° C., 200 min was 90%. Besides, the Fab-arm exchange efficiency compared to the positive control, 15° C., 200 min in assay [1] came to 65%.

Take IgG1-2F8-F405V (antibody): the Bispecific binding (% relative to positive control) in assay [1] was determined as 36%; in assay [2], 46%; in assay [3], 43%; in [4] it was 37%.

In the case of CH2-CH3 construct G4-F405L, in assay [12], the Kd amounted to 25000 nM and the fold-difference (against wild type CH2-CH3 fragment) is 0.0019 fold.

In the case of CH2-CH3 construct G4-R409T, in assay [13], the Kd came out at 720 nM and the fold-difference (against wild type CH2-CH3 fragment) turned out to be 0.07 fold.

Take “IgG1-7D8-K409R (from UniProt P01857 1-330) (antibody)”: in assay [14], the EC50 (read off the curve) is 0.4 µg/mL.

As to CH2-CH3 construct G4, in assay [15], the Kd was 48 nM and the fold-difference (against wild type CH2-CH3 fragment) amounted to 1 fold.

Take CH2-CH3 construct G4-L351K: in assay [16], the Kd worked out at 740 nM and the fold-difference (against wild type CH2-CH3 fragment) was 0.06 fold.

Consider IgG1-2F8-D399R (antibody), for which the Bispecific binding (% relative to positive control) in assay [1] was determined as 47%; in [2], 45%; in [3] it was 52%; in [4], 38%. Moreover, in assay [2], the Fab-arm exchange compared to the positive control, 20° C., 200 min was determined as 85%. Further, the Fab-arm exchange efficiency compared to the positive control, 15° C., 200 min in assay [2] is 85%.

With CH2-CH3 construct G4-F405A, in assay [17], the Kd came to 19000 nM and the fold-difference (against wild type CH2-CH3 fragment) came to 0.0025 fold.

Consider IgG1-2F8-D399Q (antibody), for which the Bispecific binding (% relative to positive control) in assay [1], in assay [2], in assay [3] and in [4] was 0% in each case.

Turning to CH2-CH3 construct G4-R409L, in assay [18], the Kd turned out to be 15 nM and the fold-difference (against wild type CH2-CH3 fragment) was found to be 3.2 fold.

Take IgG1-2F8-L368A (antibody): the Bispecific binding (% relative to positive control) in assay [1] came to 33%; in [2] it was 33%; in assay [3], 37%; in assay [4], 25%.

In the case of IgG1-2F8-L368N (antibody), the Bispecific binding (% relative to positive control) in assay [1] was determined as 47%; in [2], 52%; in [3] it was 54%; in assay [4] it was 43%.

Regarding IgG1-2F8-F405K (antibody), the Bispecific binding (% relative to positive control) in assay [1] is 29%; in assay [2] it was 48%; in assay [3] it was 40%; in [4], 47%.

The values above are taken from patent US20140303356A1.
